In PMC2572732 (2008):
Non-standard residues stand in square brackets, D forms with d. No end group written: not given here. pY = N[C@@H](Cc1ccc(OP(=O)(O)O)cc1)C(=O)O

Legend:
[1] = biological target: isolated Fes SH2 domain, G463V (mutant G/V) (human, UniProt P07332-1 460-549, G463V (mutant G/V)); assay: FP
[2] = biological target: isolated Fes SH2 domain, E469K/E472K (mutant EE/KK) (human, UniProt P07332-1 460-549, E469K | E472K); assay: FP
[3] = biological target: isolated Fes SH2 domain, wild type (human, UniProt P07332-1 460-549); assay: FP
[4] = biological target: human Fes SH2-kinase unit (residues I448 to the C terminus), unphosphorylated (human, UniProt P07332-1 448-822); assay: FP; 1 mM ATP and 5 mM MgCl2

Measured: Kd

Sequence of isolated Fes SH2 domain, wild type (P07332 460-549): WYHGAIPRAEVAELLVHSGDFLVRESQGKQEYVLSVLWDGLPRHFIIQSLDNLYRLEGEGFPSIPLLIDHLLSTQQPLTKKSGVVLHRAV
Sequence of isolated Fes SH2 domain, E469K/E472K (mutant EE/KK) (P07332 460-549 E469K/E472K): as the sequence (P07332 460-549) above, with E10K, E13K counted along it
Sequence of human Fes SH2-kinase unit (residues I448 to the C terminus), unphosphorylated (P07332 448-822): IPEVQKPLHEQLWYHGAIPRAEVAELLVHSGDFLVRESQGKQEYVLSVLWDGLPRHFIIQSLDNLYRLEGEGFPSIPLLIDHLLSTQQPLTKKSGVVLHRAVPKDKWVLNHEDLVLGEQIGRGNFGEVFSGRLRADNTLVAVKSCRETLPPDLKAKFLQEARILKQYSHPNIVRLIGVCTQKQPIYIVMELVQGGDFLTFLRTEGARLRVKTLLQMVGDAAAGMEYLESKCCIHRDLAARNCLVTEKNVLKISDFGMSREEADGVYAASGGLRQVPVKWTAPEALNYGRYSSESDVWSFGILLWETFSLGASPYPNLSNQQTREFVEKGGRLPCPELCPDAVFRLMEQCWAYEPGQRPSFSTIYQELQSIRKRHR
Sequence of isolated Fes SH2 domain, G463V (mutant G/V) (P07332 460-549 G463V): as the sequence (P07332 460-549) above, with G4V counted along it

V[pY]EPVSY [pTyr-containing peptide from ezrin (VpYEPVSY)]
~400 nM: all assays above
